The data set is described as follows: yeast display, Sf9 membrane polyspecificity reagent, FACS + sequencing; frameworks hold sequencing errors. Put shortly: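 Galactose induction of a Saccharomyces cerevisiae BJ5465 synthetic nanobody display library ran 36–48 hours. The cells were then stained for 1 hour at 4 °C with 10% biotinylated, detergent-solubilized Sf9 membrane reagent, pulled down on streptavidin microbeads and FACS-sorted into low and high (top ~1%) gates on expression and reagent-binding fluorescence. Labels for polyreactivity follow the gate of origin.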
“QVQLVESGGGLVQAGGSLRLSCAASGFIFGDKAMGWYRQAPGKERELVAAINSGSRTSYADSVKGRFTISRDNAKNTVYLQMNSLNPEDTAVYYCAAESVSSGDNASRYDYWGQGTQVTVSS”: the “polyreactivity (PSR sort gate)” value is recorded as “low polyreactivity”.

As for “QVQLVESGGGLVQAGGSLRLSCAASGFIFGDYAMGWYRPAPGKERELVAAITWSGDGTYYADSVKGRFTISRDNAKNTVYLQMNSLKPEDTAVYYCAADFSPRRYHNRSFGYWGQGTQVTVSS”, the “polyreactivity (PSR sort gate)” value is recorded as “low polyreactivity”. Under “QVQLVESGGGLVQAGGSLRLSCAASGFIFGDYAMGWYRQAPGKERELVAAIRCSDSTTYYADSVKGRFTISRDNAKNTVYLQMNSLKPEDTAVYYCAAVGVVPRKKSARVYYWGQGTQVTVSS” stands “low polyreactivity”; under “QVQLVESGGGLVQAGGSLRLSCAASGFIFGFYAMGGYRQAPGKERELVAAISWSGGSTYYADSVKGRFTISRDNAKNTVYLQMNSLKPEDTAVYYCAAYFYYLDDAVTYDYWGQGTQVTVSS”, “low polyreactivity”. Under “QVQLVESGGGLVQAGGSLRLSCAASGFIFGFYAMGWYRQAPGKERELVAAISSSGGSTYYADSVKGRFTISRDTAKNTGYLQMNSLKPEDTAVYYCAAYFYYLDDAVTYDYWGQGTQVTVSS” stands “low polyreactivity”.

For “QVQLVESGGGLVQAGGSLRLSCAASGFIFGGNAMGWYRQAPGKERELVAAISKSGGRTYYADSVKGRFTISRDNAKNTVYLQMNSLKPEDTAVYYCAAVPGRTAEDYGEDYWGQGTQVTVSS”, the “polyreactivity (PSR sort gate)” value was “high polyreactivity”.

Consider “QVQLVESGGGLVQAGGSLRLSCAASGFIFGGNAMGWYRQAPGKVRELVAAITARSGSTYYADSVKGRFTISRDNAKNTVYLQMNSLKPEDTAVYYCAKGSLGSTRYYYWGQGTQVTVSS”, for which the “polyreactivity (PSR sort gate)” value is given as “low polyreactivity”. To “QVQLVESGGGLVQAGGSLRLSCAASGFIFGGYAMGWYRQAPGKERELVADISSGDSTKYADSVKGRFTISRDNAKNTVYLQMNSLKPEDTAVYYCAADAVVSTWTQFEYDYWGQGTQVTVSS” belongs “low polyreactivity”; to “QVQLVESGGGLVQAGGSLRLSCAASGFIFGGYAMGWYRQAPGNERDLVAAITSSGGDTYYADSVKGRFTISRDNAKNTVYLQMNSLKPEDTAVYYCAKRARRIGDVNMGSWGQGTQVTVSS”, “low polyreactivity”; to “QVQLVESGGGLVQAGGSLRLSCAASGFIFGGYTMGWYRQAPGKERELVAAISKTGGSTYYADSVKGRFTISRDNAKNTVYLQMNSLKPEDTAVYYCAVARSAYYRGNHWGQGTQVTVSS”, “high polyreactivity”. With “QVQLVESGGGLVQAGGSLRLSCAASGFIFGHNDMGWYRQAPGKERELVASISKSGGDTYYADSVKGRFTISRDNAKNTVYLQMNSLKPEDTAVYYCAADGPDAYYYHRYIYFRRSYYWGHGTQVTVSS”, the “polyreactivity (PSR sort gate)” value is recorded as “low polyreactivity”. Under “QVQLVESGGGLVQAGGSLRLSCAASGFIFGHNTMVWYRQAPGKERELVAAITRSGGRTYYADSVKGRFTISRDNAKNTVYLQMNSLKPEDTAVYYCNAYPTRPADGDYDYWGQGTQVTVSS” stands “high polyreactivity”; under “QVQLVESGGGLVQAGGSLRLSCAASGFIFGHYAMGWYRPAPGKERELVATIRRDPSRTYYADSVKGRFTISRDNAKNTVYLQMNSLKPEDTAVYYCATAQYIWGRSKYYYWGQGTQVTVSS”, “high polyreactivity”. Turning to “QVQLVESGGGLVQAGGSLRLSCAASGFIFGHYTMGWYRQAPGKERELVAAITTGGRTYYADSVKGRFTISRDNAKNTVYLQMNSLKPEDTAVYYCAARGYIWGQGTQVTVSS”, the “polyreactivity (PSR sort gate)” value was “high polyreactivity”.

For the sequence “QVQLVESGGGLVQAGGSLRLSCAASGFIFGINAMGWYRQAPGKERELVAAISKRTGSTYYADSVKGRFTISRDNAKNTVYLQMNSLKPEDTAVYYCNVVRYNGLDKYDYWGQGTQVTVSS”, the “polyreactivity (PSR sort gate)” value was “high polyreactivity”. Under “QVQLVESGGGLVQAGGSLRLSCAASGFIFGIYAMGWYRQAPGKERELVAAISYRGGRTYYADSVKGRFTISRDNAKNTVYLQMNSLKPEDTAVYYCNTRGYRPGYNYWGQCTQVTVSS” stands “high polyreactivity”; under “QVQLVESGGGLVQAGGSLRLSCAASGFIFGKYAMGWYRQAPGKEREFVAAITGNGGSTYYADSVKGRFTISRDYAKNTVYLQMNSLKPVDSAVYYCYADRGYRRRSGMVYWGQGTQVSVSS”, “low polyreactivity”.

As to “QVQLVESGGGLVQAGGSLRLSCAASGFIFGLYDMGWYRQAPGKERELVAAISWSGGSTYYADSVKGRFTISRDNAKNTVYLQMNSLKPQDTAFYYCAAKHVGWYVQEEDYWGQGSQVTVSS”, the “polyreactivity (PSR sort gate)” value was “low polyreactivity”.

In the case of “QVQLVESGGGLVQAGGSLRLSCAASGFIFGLYGMGWYRPAPGKERELVAAISTSSGITYYADSVKGRFTISRDNAKNTVYLQMNSLKPEDTAVYYCAARGHYYDYWGQGTQVTVSS”, the “polyreactivity (PSR sort gate)” value is “low polyreactivity”. Under “QVQLVESGGGLVQAGGSLRLSCAASGFIFGNNDMGWNRQAPGKERELVAGITWSGSSTYYADSVKGRFTISRDNAKNTVYLQMNSLKPEDTAVYYCARDGNDGYEYWGQGTQVTVSS” stands “high polyreactivity”; under “QVQLVESGGGLVQAGGSLRLSCAASGFIFGPNAMGWYRQAPAKERELVAAISYSGGRTYYADSVKGRFTISRDNAKNTVYLQMNSLKPEDTSVYYCAADAYWYGRSYYWGQGTQVTVSS”, “high polyreactivity”; under “QVQLVESGGGLVQAGGSLRLSCAASGFIFGPNAMGWYRQAPGKERELVAAIRWSSGTTYYADSVKGRFTISRDNAKNTVSLQMNSLKPEDTAVYYCAAGPYVSYYWGQGTQVTVSS”, “low polyreactivity”. Regarding “QVQLVESGGGLVQAGGSLRLSCAASGFIFGQYAMGWYRQAPGKERELVAAISWSGGRTNYADSVKGRFTISRDNAKNTVYLQMNSLKPEDTAVYYCAARKGKYPQYTYGYWGQGTQVTVSS”, the “polyreactivity (PSR sort gate)” value is on record as “high polyreactivity”. To “QVQLVESGGGLVQAGGSLRLSCAASGFIFGRKSMGWYRQAPGKERELVAAISSGDSTYYADSVKGRFTISRDNAKNTVYLQMNSLKPEDTAVYYCAARLVRQQSRPKGGYWGQGTQVTVSS” belongs “high polyreactivity”; to “QVQLVESGGGLVQAGGSLRLSCAASGFIFGRNAMGWYRQAPGKEREFVAAITRIGGNTYYADSVKGRFTISRDNAKNTVYLQMNSLKPEDTAVYYCAARLSYFHAYGFYWGQGTQVTVSS”, “high polyreactivity”. Under “QVQLVESGGGLVQAGGSLRLSCAASGFIFGRYAMGWYRQAPGKERELVARITGIGTRTYYADSVKGRFTISRDNAKNTVYLQMNSLKPEDTAVYYCAVRPFYWGQGTQVTVSS” stands “high polyreactivity”; under “QVQLVESGGGLVQAGGSLRLSCAASGFIFGRYTMGWYRQAPGKERELVAAISGSDVSTYYADSVKGRFTISRDNAKITVYLQMNRLKPEDTAVYYCAADAPWAYYEYDYWGQGTQVTVSS”, “low polyreactivity”. To “QVQLVESGGGLVQAGGSLRLSCAASGFIFGRYTMGWYRQAPGKERELVAAISGSDVSTYYADSVKGRFTISRDNAKNTVYLQMNSLKPEDTAVYYCAADAPWAYYEYDYWGQGTQVTVSS” belongs “low polyreactivity”; to “QVQLVESGGGLVQAGGSLRLSCAASGFIFGSYAMGWYRQAPGKERELVAAISWSGASTYYADSVKGRFTISRDKAKNTVYLQMNSLKPEDTAVYYCAAVSRYGWYDYWGQGTQVTVSS”, “high polyreactivity”. In the case of “QVQLVESGGGLVQAGGSLRLSCAASGFIFGTYAMGWYRQAPGKEREFVAAITTSGSSTRYADSVKGRFTISRDNAKNTVYLQMNSLKPEDTAVYYCAARNRTFFQPTYYYWGQGTQVTVSS”, the “polyreactivity (PSR sort gate)” value was “high polyreactivity”.

Regarding “QVQLVESGGGLVQAGGSLRLSCAASGFIFGTYVMGWYRQAPGKERELVAAISESGGRTYYADSVKGRFTISRDNAKNTVYLQMNSLKPEDTAVYYCNAPHHRYDWGQGTQVTVSS”, the “polyreactivity (PSR sort gate)” value is “high polyreactivity”. To “QVQLVESGGGLVQAGGSLRLSCAASGFIFGVNTMGWYRQAPGKERELVAAINSGGSTNYADSVKGRFTISRDNAKNTVYLLMNSLKPEDTAVYYCAVRHFWYRWGWYNYWGQGTEVTVSS” belongs “high polyreactivity”; to “QVQLVESGGGLVQAGGSLRLSCAASGFIFGVYAKGWYRQAPGKERELVAAISGSGVRTYYADSVKGRFTISRDNAKNTLYLQMNSLKPEDTAVYYCAARRGFVRPYNYWGQGTQVTVSS”, “high polyreactivity”; to “QVQLVESGGGLVQAGGSLRLSCAASGFIFGVYAMGWYRQAPGKERELVAAITSTGSTYYADSVKGRFTISRDNAKNTVYLQMNSLKPEDTAVYYCATYYWLGLSLYDYWGQGTQVTVSS”, “low polyreactivity”. To “QVQLVESGGGLVQAGGSLRLSCAASGFIFGVYAMRWYRQAPGKERELVAAISYRTGTTYYADSVKGRFTISRDNAKNTVYLQMNSLKTEDTAVYYCNAAVRGVGELDYWGQGTQVTVSS” belongs “high polyreactivity”; to “QVQLVESGGGLVQAGGSLRLSCAASGFIFGVYDMGWSRQAPGKERELVAAIDSVGSTYYADSVKGRFTISRDNAYNTVYLQMNSLKPEDTAVYYCAKDGSYQAYGYWGQGTQVTVSS”, “low polyreactivity”; to “QVQLVESGGGLVQAGGSLRLSCAASGFIFGWNAMGWSRQAPGKEREFVAAISWSGGSTYYADSVKGRFTISRDNAKNTVYLQMNSLKPEDTAVYYCAREYHGDSRRYDYWGQGTQVTVSS”, “high polyreactivity”.

As for “QVQLVESGGGLVQAGGSLRLSCAASGFIFGYNAMGWYRQAPGKERELVAAISSGGSTYYADSVKGRFTISRDNAKNTVYLQMKSLKPEDTAVYYCAVELGYPIQSYALWWDFEYWGQGTQVTVSS”, the “polyreactivity (PSR sort gate)” value is “low polyreactivity”. With “QVQLVESGGGLVQAGGSLRLSCAASGFIFGYNAMGWYRQAPGKERELVAAISTRGGSTYYADSVKGRFTISRDNAKNTVYLQMNSLKPEDTAVYYCNKVTRVPFDSWGQGTQVTVSS”, the “polyreactivity (PSR sort gate)” value is on record as “high polyreactivity”.

Regarding “QVQLVESGGGLVQAGGSLRLSCAASGFIFGYNAMGWYRQAPGKESEFVAAISSSGASKYYADSVKGRFTISRDNAKNTVYLQMNSLKPEDTAVYYCAARYSWARYASTMGYWGQGTQVTVSS”, the “polyreactivity (PSR sort gate)” value is on record as “high polyreactivity”. To “QVQLVESGGGLVQAGGSLRLSCAASGFIFGYNDMGWSRQAPGKERELVAAINSGGSTYYADSVKGRFTISRDNAKNTVYLQMNSLKPDDTAVYYCAADYGYFEFDYWGQGTQVTVSS” belongs “low polyreactivity”.
